Target: Native (wild-type) human factor VIIa (human) (UniProt P08709)
Assay: cell-based or functional assay

Sequence of UniProt P08709 (P08709 213-466, chain 2 of 2, other chains not shown): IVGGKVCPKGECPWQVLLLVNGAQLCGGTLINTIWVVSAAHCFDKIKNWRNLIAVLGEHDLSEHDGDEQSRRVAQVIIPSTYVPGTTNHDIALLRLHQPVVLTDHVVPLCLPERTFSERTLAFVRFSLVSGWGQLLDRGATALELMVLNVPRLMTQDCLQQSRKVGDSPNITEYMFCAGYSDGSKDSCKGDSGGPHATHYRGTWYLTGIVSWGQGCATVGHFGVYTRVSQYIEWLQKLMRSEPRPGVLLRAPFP

With “Antithrombin III (ATIII) (from UniProt P01008 33-464)” the Relative first-order rate constants (ratio) of ATIII inhibition (ratio to wt-Factor VIIa) was 1.

— patent publication US20150044195A1
